Test results taken from the supplement of paper PMC9112550, “Optimization of the antimicrobial peptide Bac7 by deep mutational scanning” (BMC Biology, 2022).

tested on: Escherichia coli TOP10; assay: shrunken log2 fold change of peptide-encoding DNA abundance (4.5 h post-induction vs induction); higher = less antimicrobial activity (less host growth inhibition); details: time post-induction: 4.5 h; library: site-saturation at positions 5, 18, 19, 20
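Also: peptides expressed intracellularly from a pBAD plasmid library in pooled LB shake-flask culture, induced with 0.3% L-arabinose, DNA abundance read by NGS, three biological replicates, DESeq2 with apeglm shrinkage.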

Row | Sequence | shrunken log2 fold change
1 | RRIRARPPRLPRPRPRPGLYPRP | -0.077
2 | RRIRARPPRLPRPRPRPGNDPRP | -0.00116
3 | RRIRARPPRLPRPRPRPGNFPRP | -0.226
4 | RRIRARPPRLPRPRPRPGNRPRP | 0.0467
5 | RRIRARPPRLPRPRPRPGNWPRP | 0.346
6 | RRIRARPPRLPRPRPRPGPQPRP | 0.367
7 | RRIRARPPRLPRPRPRPGQTPRP | 0.178
8 | RRIRARPPRLPRPRPRPGRFPRP | 1.11
9 | RRIRARPPRLPRPRPRPGSFPRP | 0.495
10 | RRIRARPPRLPRPRPRPGTSPRP | 0.24
11 | RRIRARPPRLPRPRPRPGVVPRP | 0.645
12 | RRIRARPPRLPRPRPRPGVWPRP | 1.55
13 | RRIRARPPRLPRPRPRPGWMPRP | -0.168
14 | RRIRARPPRLPRPRPRPGWSPRP | 0.57
15 | RRIRARPPRLPRPRPRPGWWPRP | 0.235
16 | RRIRARPPRLPRPRPRPHACPRP | 0.066
17 | RRIRARPPRLPRPRPRPHATPRP | 1.01
18 | RRIRARPPRLPRPRPRPHCKPRP | 0.0852
19 | RRIRARPPRLPRPRPRPHCNPRP | 0.717
20 | RRIRARPPRLPRPRPRPHCTPRP | 1.18
21 | RRIRARPPRLPRPRPRPHDKPRP | -0.0542
22 | RRIRARPPRLPRPRPRPHGSPRP | -0.071

Row | Sequence | shrunken log2 fold change
23 | RRIRARPPRLPRPRPRPHICPRP | -0.104
24 | RRIRARPPRLPRPRPRPHIQPRP | -0.164
25 | RRIRARPPRLPRPRPRPHISPRP | -0.278
26 | RRIRARPPRLPRPRPRPHITPRP | -0.294
27 | RRIRARPPRLPRPRPRPHKDPRP | 0.0954
28 | RRIRARPPRLPRPRPRPHLCPRP | 0.202
29 | RRIRARPPRLPRPRPRPHLWPRP | 0.645
30 | RRIRARPPRLPRPRPRPHMDPRP | 0.281
31 | RRIRARPPRLPRPRPRPHNRPRP | -0.00621
32 | RRIRARPPRLPRPRPRPHQPPRP | -0.115
33 | RRIRARPPRLPRPRPRPHQTPRP | -0.103
34 | RRIRARPPRLPRPRPRPHRAPRP | 0.216
35 | RRIRARPPRLPRPRPRPHRMPRP | -0.0562
36 | RRIRARPPRLPRPRPRPHRRPRP | 0.212
37 | RRIRARPPRLPRPRPRPHVWPRP | 0.29
38 | RRIRARPPRLPRPRPRPHVYPRP | -0.0492
39 | RRIRARPPRLPRPRPRPHWYPRP | 0.157
40 | RRIRARPPRLPRPRPRPHYDPRP | -0.0354
41 | RRIRARPPRLPRPRPRPIAKPRP | 0.217
42 | RRIRARPPRLPRPRPRPICHPRP | 0.0398
43 | RRIRARPPRLPRPRPRPIDTPRP | 0.0213
44 | RRIRARPPRLPRPRPRPIEAPRP | 0.213

Row | Sequence | shrunken log2 fold change
45 | RRIRARPPRLPRPRPRPIEEPRP | -0.0473
46 | RRIRARPPRLPRPRPRPIGNPRP | 0.00902
47 | RRIRARPPRLPRPRPRPIHGPRP | -0.208
48 | RRIRARPPRLPRPRPRPIHLPRP | -0.633
49 | RRIRARPPRLPRPRPRPIKWPRP | 0.235
50 | RRIRARPPRLPRPRPRPILTPRP | 0.0217
51 | RRIRARPPRLPRPRPRPIMLPRP | -0.43
52 | RRIRARPPRLPRPRPRPINIPRP | -0.334
53 | RRIRARPPRLPRPRPRPINVPRP | -0.0118
54 | RRIRARPPRLPRPRPRPIPPPRP | 0.217
55 | RRIRARPPRLPRPRPRPIQHPRP | -0.132
56 | RRIRARPPRLPRPRPRPISFPRP | 0.323
57 | RRIRARPPRLPRPRPRPISSPRP | -0.102
58 | RRIRARPPRLPRPRPRPISVPRP | -0.173
59 | RRIRARPPRLPRPRPRPITMPRP | -0.231
60 | RRIRARPPRLPRPRPRPIVFPRP | -0.0956
61 | RRIRARPPRLPRPRPRPIYIPRP | 2.43
62 | RRIRARPPRLPRPRPRPIYQPRP | 0.0519
63 | RRIRARPPRLPRPRPRPKCEPRP | 0.367
64 | RRIRARPPRLPRPRPRPKCLPRP | 0.613
65 | RRIRARPPRLPRPRPRPKDYPRP | -0.248
66 | RRIRARPPRLPRPRPRPKEMPRP | 0.324

Row | Sequence | shrunken log2 fold change
67 | RRIRARPPRLPRPRPRPKGCPRP | 1.4
68 | RRIRARPPRLPRPRPRPKIHPRP | -0.0619
69 | RRIRARPPRLPRPRPRPKKMPRP | -0.0239
70 | RRIRARPPRLPRPRPRPKLLPRP | 0.00678
71 | RRIRARPPRLPRPRPRPKLYPRP | 0.0318
72 | RRIRARPPRLPRPRPRPKNKPRP | 0.216
73 | RRIRARPPRLPRPRPRPKNMPRP | -0.191
74 | RRIRARPPRLPRPRPRPKNYPRP | -0.279
75 | RRIRARPPRLPRPRPRPKSEPRP | 1.22
76 | RRIRARPPRLPRPRPRPKTCPRP | 0.161
77 | RRIRARPPRLPRPRPRPKVYPRP | -0.0122
78 | RRIRARPPRLPRPRPRPKWPPRP | 0.751
79 | RRIRARPPRLPRPRPRPKYHPRP | -0.103
80 | RRIRARPPRLPRPRPRPLANPRP | 0.255
81 | RRIRARPPRLPRPRPRPLELPRP | 0.386
82 | RRIRARPPRLPRPRPRPLFGPRP | 0.235
83 | RRIRARPPRLPRPRPRPLFYPRP | -0.312
84 | RRIRARPPRLPRPRPRPLIVPRP | 0.287
85 | RRIRARPPRLPRPRPRPLIWPRP | 0.359
86 | RRIRARPPRLPRPRPRPLKPPRP | 0.464
87 | RRIRARPPRLPRPRPRPLLPPRP | 0.419
88 | RRIRARPPRLPRPRPRPLLYPRP | 0.09

Row | Sequence | shrunken log2 fold change
89 | RRIRARPPRLPRPRPRPLMAPRP | 0.554
90 | RRIRARPPRLPRPRPRPLMCPRP | 0.0392
91 | RRIRARPPRLPRPRPRPLTFPRP | -0.203
92 | RRIRARPPRLPRPRPRPLVFPRP | 0.397
93 | RRIRARPPRLPRPRPRPLWCPRP | -0.264
94 | RRIRARPPRLPRPRPRPLWHPRP | 0.108
95 | RRIRARPPRLPRPRPRPLWKPRP | 0.121
96 | RRIRARPPRLPRPRPRPLYQPRP | 0.141
97 | RRIRARPPRLPRPRPRPLYRPRP | -0.28
98 | RRIRARPPRLPRPRPRPMAEPRP | 0.238
99 | RRIRARPPRLPRPRPRPMAFPRP | 0.0104
100 | RRIRARPPRLPRPRPRPMAQPRP | 0.23
101 | RRIRARPPRLPRPRPRPMCHPRP | 0.294
102 | RRIRARPPRLPRPRPRPMDIPRP | 0.142
103 | RRIRARPPRLPRPRPRPMDSPRP | -0.104
104 | RRIRARPPRLPRPRPRPMFEPRP | 0.3
105 | RRIRARPPRLPRPRPRPMFMPRP | 0.749
106 | RRIRARPPRLPRPRPRPMGHPRP | 0.062
107 | RRIRARPPRLPRPRPRPMHLPRP | -0.00822
108 | RRIRARPPRLPRPRPRPMIIPRP | -0.0301
109 | RRIRARPPRLPRPRPRPMIMPRP | -0.0807
